From patent US20200024330A1

Key:
Assay in all cases: cell-based or functional assay
[1] = molecular target: HIV-1 92RW020 Env (pseudovirus) (HIV-1 92RW020)
[2] = molecular target: HIV-1 ADA Env (pseudovirus) (HIV-1 ADA)
[3] = molecular target: HIV-1 Env of isolate AC10 (HIV-1)
[4] = molecular target: HIV-1 Env of isolate CAAN (HIV-1)
[5] = molecular target: HIV-1 Env of isolate CAP45 (HIV-1)
[6] = molecular target: HIV-1 Env of isolate DU156 (HIV-1)
[7] = molecular target: HIV-1 Env of isolate DU422 (HIV-1)
[8] = molecular target: HIV-1 Env of isolate Du172 (HIV-1)
[9] = molecular target: HIV-1 Env of isolate PVO.4 (HIV-1)
[10] = molecular target: HIV-1 Env of isolate REJ04541 (HIV-1)
[11] = molecular target: HIV-1 Env of isolate THRO.18 (HIV-1)
[12] = molecular target: HIV-1 Env of isolate TR0.11 (HIV-1)
[13] = molecular target: HIV-1 Env of isolate ZM214 (HIV-1)
[14] = molecular target: HIV-1 Env of isolate ZM233 (HIV-1)
[15] = molecular target: HIV-1 Env of isolate ZM249 (HIV-1)
[16] = molecular target: HIV-1 JR-CSF Env I309A (pseudovirus) (HIV-1 JR-CSF) (UniProt P20871)
[17] = molecular target: HIV-1 JR-CSF Env Y318A (pseudovirus) (HIV-1 JR-CSF) (UniProt P20871)
[18] = molecular target: HIV-1 JR-CSF Env, wild type (pseudovirus) (HIV-1 JR-CSF) (UniProt P20871)
[19] = molecular target: HIV-1 JR-FL Env E168K (pseudovirus) (HIV-1 JR-FL)
[20] = molecular target: MuLV envelope protein (control pseudovirus) (MuLV)

B1: 1489_I13 (PG16) (TCN-120) (antibody, V domains shown)
VH: QEQLLESGGGVVQPGGSLRLSCLASGFTFHKYGMHWVRQAPGKGLEWVALISDDGMRKYHSNSMWGRVTISRDNSKNTLYLQFSSLKVEDTAMFFCAREAGGPIWHDDVKYYDFNDGYYNYHYMDVWGKGTTVTVSS
VL: QSALTQPASVSGSPGQTITISCNGTSSDVGGFDSVSWYQQSPGKAPKVMVFDVSHRPSGISNRFSGSKSGNTASLTISGLHIEDEGDYFCSSLTDRSHRIFGGGTKVTVLG
IC50 (ug/ml), neutralization [1]: 0.03 µg/mL
IC50 (ug/ml), neutralization [2]: 0.008 µg/mL
IC50, pseudovirus neutralization (TZM-bl) [3]: < 0.01 µg/mL
IC50, pseudovirus neutralization (TZM-bl) [4]: 24.9 µg/mL
IC50, pseudovirus neutralization (TZM-bl) [5]: < 0.01 µg/mL
IC50, pseudovirus neutralization (TZM-bl) [6]: < 0.01 µg/mL
IC50, pseudovirus neutralization (TZM-bl) [7]: 1.87 µg/mL
IC50, pseudovirus neutralization (TZM-bl) [8]: < 0.01 µg/mL
IC50, pseudovirus neutralization (TZM-bl) [9]: 20.6 µg/mL
IC50, pseudovirus neutralization (TZM-bl) [10]: 0.34 µg/mL
IC50, pseudovirus neutralization (TZM-bl) [11]: 7.41 µg/mL
IC50, pseudovirus neutralization (TZM-bl) [12]: 10.9 µg/mL
IC50, pseudovirus neutralization (TZM-bl) [13]: > 25 µg/mL
IC50, pseudovirus neutralization (TZM-bl) [14]: < 0.01 µg/mL
IC50, pseudovirus neutralization (TZM-bl) [15]: < 0.01 µg/mL
IC50 (ug/ml), neutralization [16]: > 1 µg/mL
IC50 (ug/ml), neutralization [17]: > 1 µg/mL
IC50 (ug/ml), neutralization [18]: 0.002 µg/mL
IC50 (ug/ml), neutralization [19]: 0.005 µg/mL
IC50, pseudovirus neutralization (TZM-bl), control virus [20]: > 25 µg/mL
